# B1: CH59 (antibody, V domains shown)
# VH: EVQLVESGGGLVQPGRSLRLSCAASGFTFDDGAMHWVRQAPGKGLEWVSGISWNSNIIAYADSVKGRFTISRDNAKNSLYLEMNSLRVEDTALYYCAKDSPRGELPLNYWGQGTLVTVSS
# VL: SYELTQPPSVSVSPGQTARITCSGDALPKNYAYWYQQKSGQAPVLVIYEDSKRPSGIPERFSGSSSGTMATLTISGAQVEDEADYYCYSTDSSGNHRVFGGGTKLTVL
# notes: also called mAb CH59
# B2: PG16 reverted unmutated ancestor antibody (antibody, V domains shown)
# VH: QVQLVESGGGVVQPGRSLRLSCAASGFTFSSYGMHWVRQAPGKGLEWVAVISYDGSNKYYADSVKGRFTISRDNSKNTLYLQMNSLRAEDTAVYYCAREAGGPIWHDDVKYYDFNDGYYYYYYMDVWGKGTTVTVSS
# VL: QSALTQPASVSGSPGQSITISCTGTSSDVGSYNLVSWYQQHPGKAPKLMIYEVSKRPSGVSNRFSGSKSGNTASLTISGLQAEDEADYYCCSLTDRSHRIFGGGTKLTVL
# notes: also called PG16 RUA; PG16_RUA
# Experiments:
# gp70 B.HXB2/BALV1V2 = biological target: T1, gp70 B.HXB2/BALV1V2 (murine leukemia virus; HIV-1); assay: ELISA, mAb 0.001-100 ug/ml on coated V1V2 scaffold, OD450
# T1 chain: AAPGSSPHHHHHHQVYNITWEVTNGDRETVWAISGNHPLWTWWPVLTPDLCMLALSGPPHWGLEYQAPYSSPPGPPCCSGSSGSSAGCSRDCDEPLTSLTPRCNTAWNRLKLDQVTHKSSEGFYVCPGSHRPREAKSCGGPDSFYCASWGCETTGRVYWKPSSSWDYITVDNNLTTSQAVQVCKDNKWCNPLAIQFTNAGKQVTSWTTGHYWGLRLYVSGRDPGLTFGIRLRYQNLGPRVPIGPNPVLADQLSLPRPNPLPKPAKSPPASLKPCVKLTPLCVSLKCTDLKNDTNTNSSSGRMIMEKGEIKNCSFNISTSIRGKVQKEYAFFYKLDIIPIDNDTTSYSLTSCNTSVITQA
# AE.97CNG2XF gp140CF = biological target: T2, AE.97CNG2XF gp140CF (HIV-1); assay: ELISA, OD405 at 10 ug/ml
# T2 construct: also called E.97CNGX2F gp140CF
# Con 6 gp120 = assay: ELISA, OD405 at 10 ug/ml
# G.con gp140CF = assay: ELISA, OD405 at 10 ug/ml
# C.1086 gp140 = biological target: T3, C.1086 gp140; assay: ELISA, OD405 at 10 ug/ml
# T3 construct: also called C.1086gp140C
# AE.A244 gp120 delta 11 = biological target: T4, AE.A244 gp120 delta 11 (HIV-1); assay: ELISA, OD405 at 10 ug/ml
# T4 construct: also called E.A244gp120Δ11; AE.A244 Δ11 gp120
# B.HXB/BAL gp140CFI = biological target: T5, B.HXB/BAL gp140CFI (HIV-1, UniProt P04578 33-680); assay: ELISA, OD405 at 10 ug/ml
# T5 construct: also called B.HxB/Ba gp140 CFI
# SIV CPZ US-1 gp140CF = biological target: T6, SIV CPZ US-1 gp140CF (SIVcpz); assay: ELISA, OD405 at 10 ug/ml
# T6 construct: also called US-1 SIVCPZ gp140CF
# T6 chain: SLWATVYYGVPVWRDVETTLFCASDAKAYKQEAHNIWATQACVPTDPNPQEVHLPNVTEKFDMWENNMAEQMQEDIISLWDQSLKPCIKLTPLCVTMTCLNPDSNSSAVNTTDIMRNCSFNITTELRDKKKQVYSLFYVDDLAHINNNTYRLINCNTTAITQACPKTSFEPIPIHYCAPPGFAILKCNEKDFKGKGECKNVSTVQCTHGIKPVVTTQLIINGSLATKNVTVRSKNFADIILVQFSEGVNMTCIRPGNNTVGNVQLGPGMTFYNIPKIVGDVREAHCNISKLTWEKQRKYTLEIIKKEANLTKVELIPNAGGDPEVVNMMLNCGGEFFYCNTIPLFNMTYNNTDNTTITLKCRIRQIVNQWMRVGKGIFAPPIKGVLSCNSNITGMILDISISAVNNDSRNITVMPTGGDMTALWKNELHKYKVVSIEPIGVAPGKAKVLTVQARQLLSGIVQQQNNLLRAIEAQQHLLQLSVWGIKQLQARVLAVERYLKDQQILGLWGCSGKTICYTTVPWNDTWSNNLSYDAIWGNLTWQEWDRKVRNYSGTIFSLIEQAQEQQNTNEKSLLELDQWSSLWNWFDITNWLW
# AE.con gp140CF = assay: ELISA, OD405 at 10 ug/ml
# gp70 B.CaseA2 V1/V2 = biological target: T7, gp70 B.CaseA2 V1/V2 (HIV-1 V1V2 on murine leukemia virus gp70); assay: ELISA, OD405 at 10 ug/ml
# T7 construct: also called B.gp70CaseA2 V1/V2; gp70 B.CaseAV1V2
# T7 chain: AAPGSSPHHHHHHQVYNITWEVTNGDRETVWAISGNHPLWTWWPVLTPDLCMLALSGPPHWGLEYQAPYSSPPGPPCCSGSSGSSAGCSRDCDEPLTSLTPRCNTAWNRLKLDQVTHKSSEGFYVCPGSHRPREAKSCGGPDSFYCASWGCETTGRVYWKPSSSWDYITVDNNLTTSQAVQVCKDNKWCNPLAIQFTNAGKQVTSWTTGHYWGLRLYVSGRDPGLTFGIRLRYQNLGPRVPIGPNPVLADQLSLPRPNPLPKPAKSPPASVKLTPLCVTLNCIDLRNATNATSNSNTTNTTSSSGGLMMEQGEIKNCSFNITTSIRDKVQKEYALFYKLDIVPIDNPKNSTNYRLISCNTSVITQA
# C.1086 V1V2 Tags = C.1086 V1V2 Tags (HIV-1); assay: ELISA, OD405 at 10 ug/ml
# gp70 C.1086 V1/V2 = biological target: T8, gp70 C.1086 V1/V2 (HIV-1 V1V2 on murine leukemia virus gp70); assay: ELISA, OD405 at 10 ug/ml
# T8 construct: also called C.gp70 1086C V1V2; C.1086gp70V1V2
# T8 chain: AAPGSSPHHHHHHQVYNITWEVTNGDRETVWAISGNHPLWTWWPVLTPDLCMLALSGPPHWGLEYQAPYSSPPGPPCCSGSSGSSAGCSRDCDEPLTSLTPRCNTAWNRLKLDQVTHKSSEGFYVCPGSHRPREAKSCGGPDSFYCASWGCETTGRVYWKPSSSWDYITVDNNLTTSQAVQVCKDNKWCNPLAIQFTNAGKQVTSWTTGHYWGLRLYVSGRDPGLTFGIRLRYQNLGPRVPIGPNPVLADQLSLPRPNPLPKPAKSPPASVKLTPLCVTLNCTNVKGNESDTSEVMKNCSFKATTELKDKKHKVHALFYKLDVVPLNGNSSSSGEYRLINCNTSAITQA
# B.9021 gp140C = B.9021 gp140C (HIV-1); assay: ELISA, OD405 at 10 ug/ml
# B.62357 gp140C = biological target: T9, B.62357 gp140C; assay: ELISA, OD405 at 10 ug/ml
# T9 construct: also called B.62357 140C
# B.63521_V1/V2 tags = assay: ELISA, OD405 at 10 ug/ml
# C.CAP206 gp140CF.12 = C.CAP206 gp140CF.12 (HIV-1); assay: ELISA, OD405 at 10 ug/ml
binder,measurement,setting,value
B1,binding result,gp70 B.HXB2/BALV1V2,no binding (tested: 100 ug/ml)
B2,binding result,AE.97CNG2XF gp140CF,no binding (tested: 10 ug/ml)
same,binding result,Con 6 gp120,no binding (tested: 10 ug/ml)
same,binding result,G.con gp140CF,no binding (tested: 10 ug/ml)
same,binding result,C.1086 gp140,no binding (tested: 10 ug/ml)
same,binding result,AE.A244 gp120 delta 11,no binding (tested: 10 ug/ml)
same,binding result,B.HXB/BAL gp140CFI,no binding (tested: 10 ug/ml)
same,binding result,SIV CPZ US-1 gp140CF,no binding (tested: 10 ug/ml)
same,binding result,AE.con gp140CF,no binding (tested: 10 ug/ml)
same,binding result,gp70 B.CaseA2 V1/V2,no binding (tested: 10 ug/ml)
same,binding result,C.1086 V1V2 Tags,no binding (tested: 10 ug/ml)
same,binding result,gp70 C.1086 V1/V2,no binding (tested: 10 ug/ml)
same,binding result,B.9021 gp140C,no binding (tested: 10 ug/ml)
same,binding result,B.62357 gp140C,no binding (tested: 10 ug/ml)
same,binding result,B.63521_V1/V2 tags,no binding (tested: 10 ug/ml)
same,binding result,C.CAP206 gp140CF.12,no binding (tested: 10 ug/ml)

# — patent US9988424 (DUKE UNIVERSITY, dated 2018)
